{"source": "patent US20100081611A1", "target": "pre-assembled ICN-CSL complex (UniProt P46531)", "sequence (P46531 1760-2126, chain 1 of 2)": "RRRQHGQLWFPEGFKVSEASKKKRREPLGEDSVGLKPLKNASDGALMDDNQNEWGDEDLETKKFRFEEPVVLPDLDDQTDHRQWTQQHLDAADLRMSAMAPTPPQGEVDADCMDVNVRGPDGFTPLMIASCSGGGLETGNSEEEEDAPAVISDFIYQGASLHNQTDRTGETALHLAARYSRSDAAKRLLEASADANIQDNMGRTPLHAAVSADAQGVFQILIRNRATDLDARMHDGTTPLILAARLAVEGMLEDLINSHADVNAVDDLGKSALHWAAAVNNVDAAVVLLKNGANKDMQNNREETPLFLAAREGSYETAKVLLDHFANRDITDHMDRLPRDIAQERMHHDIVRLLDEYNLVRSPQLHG", "sequence (Q06330 23-449, chain 2 of 2, further chain)": "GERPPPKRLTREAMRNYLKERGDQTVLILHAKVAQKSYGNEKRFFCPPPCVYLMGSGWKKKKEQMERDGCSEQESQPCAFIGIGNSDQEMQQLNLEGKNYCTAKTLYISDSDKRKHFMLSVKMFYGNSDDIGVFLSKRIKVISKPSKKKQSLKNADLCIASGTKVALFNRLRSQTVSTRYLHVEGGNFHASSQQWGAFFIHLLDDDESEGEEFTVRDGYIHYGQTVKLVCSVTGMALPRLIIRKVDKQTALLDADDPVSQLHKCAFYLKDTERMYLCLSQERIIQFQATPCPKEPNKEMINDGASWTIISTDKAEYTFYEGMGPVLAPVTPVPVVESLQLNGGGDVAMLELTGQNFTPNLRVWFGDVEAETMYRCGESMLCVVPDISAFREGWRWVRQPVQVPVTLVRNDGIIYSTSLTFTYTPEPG", "experiment": "surface plasmon resonance, peptide immobilized, pre-assembled ICN-CSL complex", "data": [{"substance": "SAHN1 (REM-G1), internally cross-linked (stapled) MAML-1 polypeptide", "values": [{"measurement": "Kd", "value": 0.098, "unit": "µM"}]}]}
